# System: wild type C57BL/6 mice
# Assay: full thickness skin wound in mice, decorin immunohistochemistry of closed wound tissue
# Type: in vivo, mouse
# Settings: 1 cm full thickness back wound, 60 μl applied directly onto the wound, 16 days
# Experimental: As depicted in FIG. 23, decorin distribution is impacted by serpina3n in closed wound tissue. Seven week old wild type C57BL/6 mice were given a 1 cm diameter full thickness wound on their backs. Mice were then given either saline (upper panels) or the Granzyme B inhibitor, serpina3n (lower panels), by applying 60 μl of the appropriate solution directly onto the wound immediately following the wounding procedure. Wounds were allowed to heal for 16 days, at which point mice were sacrificed and the closed wound tissue harvested. […] Increased decorin throughout the newly formed dermis thus provides more organized collagen, less scarring and increased tensile strength.
molecule,measurement,value
"serpina3n: the Granzyme B inhibitor, serpina3n; Serpina3n is also known as SerpinA3 (protein, UniProt Q91WP6 21-418, looked up) Serine protease inhibitor A3N: FPDGTLGMDAAVQEDHDNGTQLDSLTLASINTDFAFSLYKELVLKNPDKNIVFSPLSISAALAVMSLGAKGNTLEEILEGLKFNLTETSEADIHQGFGHLLQRLNQPKDQVQISTGSALFIEKRQQILTEFQEKAKTLYQAEAFTADFQQPRQAKKLINDYVRKQTQGMIKELVSDLDKRTLMVLVNYIYFKAKWKVPFDPLDTFKSEFYAGKRRPVIVPMMSMEDLTTPYFRDEELSCTVVELKYTGNASALFILPDQGRMQQVEASLQPETLRKWKNSLKPRMIDELHLPKFSISTDYSLEDVLSKLGIREVFSTQADLSAITGTKDLRVSQVVHKAVLDVAETGTEAAAATGVKFVPMSAKLYPLTVYFNRPFLIMIFDTETEIAPFIAKIANPK",decorin distribution (immunohistochemistry) in newly formed dermis,intense decorin staining near the dermal-epidermal junction but also demonstrated intense decorin staining deeper into the dermis

# Reference: patent publication US20140056964A1, “GRANZYME B INHIBITOR COMPOSITIONS, METHODS AND USES FOR PROMOTING WOUND HEALING” (THE UNIVERSITY OF BRITISH COLUMBIA, priority 2010, published 2014)
